These results are taken from patent US10188706B2, “Plasminogen activator mutants as anti-fibrinolytic agents” (HADASIT MEDICAL RESEARCH SERVICES & DEVELOPMENT LIMITED, priority 2012, dated 2019).

“Also recorded” adds a separate entry of the source.

For one test, the system named is tPA. Put plainly: Plasminogen activator activity, chromogenic assay without fibrin, activation by tPA. Format: biochemical, human. The following applies: FIG. 2D. As for the experimental part:
(§1) Plasminogen Activator Activity
(§2) Plasminogen activator activity was determined by adding tPA (50 nM) or uPA (20 nM), to a reaction mixture containing Glu-plasminogen and the plasmin chromogenic substrate Spectrazyme PL (100 μM) in phosphate-buffered saline (PBS) at 37° C., and the light absorbance at 405 nm was measured continuously over time. The initial velocities of plasmin generation at the different conditions were calculated from the change in the A405 nm over time. The initial velocity of the reaction at each plasminogen concentration was obtained by calculating the change in the rate of A405 over different time intervals and the results were expressed as the change in optical density (ΔOD) per minute, which represents the slope of the initial velocity of plasminogen activation (Higazi A et al., J Biol Chem. (1995), 270(29):17375-80).

Test [1] concerns the target T1, uPA (Homo sapiens, UniProt P00749).
T1 construct: Single-chain urokinase (uPA) was purified, characterized as previously reported; made in house
Description: Fibrinolysis assay in human plasma derived clots, lysis by uPA. Type of test: biochemical. To be noted: uPA 50 nM; mutant 50 nM; FIG. 2A, 2B. The method, then: (§3) Fibrinolysis Assay in Human Plasma Derived Clots
(§4) Clots were formed by placing human plasma (200 μL) in 16-mm diameter tissue culture wells flowed by adding thrombin (0.4 U/mL final concentration). Fibrinolysis was measured as described in Higazi A A et al., Blood (1998), 92(6):2075-83). Briefly, 10 μL tPA or uPA were placed over the plasma clots for 2 hours at 37° C., photographed and the diameter of the wholes were determined.

Test [2] deals with T1, uPA. Put plainly: Plasminogen activator activity, chromogenic assay without fibrin, activation by uPA. Format: biochemical. To be noted: FIG. 2D. As for the experimental part: as §1, §2
The subject of another test is WT mice subjected to CHI. Put plainly: Closed head injury (CHI) model of TBI in WT mice. Format: in vivo, mouse. The following applies: for neuroprotection (neurological severity score, NSS): given 2 hrs after CHI. The method, then:
Eight to twelve weeks old C57 mice obtained from Harlan, Israel. Mice were administered standard laboratory chow and water ad libitum, and kept in controlled temperature and light conditions. Animal experiments were carried out according to the guidelines of the Hebrew University-Institutional Committee for Care and Use of Laboratory Animals, and with the committee's approval.
Closed Head Injury (CHI) Model
Head trauma was induced by using a modified weight-drop device, as previously described (Chen Y. et al. (1996) J. Neurotrauma, 13:557-568). Briefly, after induction of ether anesthesia, a midline longitudinal incision was made, the skin was retracted and the skull was exposed. The left anterior frontal area was identified and a Teflon tipped cone (2-mm diameter) was placed 1 mm lateral to the midline, in the midcoronal plane. The head was held in place manually and a 75-g weight was dropped on the cone from a height of 18 cm, resulting in focal injury to the left hemisphere. After trauma, the mice received supporting oxygenation with 95% 02 for no longer than 2 min and were then returned to their cages. In sham controls only anesthesia and skin incision were carried out.

The target in a further test is reteplase (Homo sapiens, UniProt P00750). Put plainly: Fibrinolysis assay in human plasma derived clots, lysis by reteplase. Format: biochemical. The following applies: reteplase 20 nM, mutant 10 nM, FIG. 2B. The method, then:
as §3, §4

The next test concerns WT-tPA. Description: Fibrinolysis assay in human plasma derived clots, lysis by WT-tPA. Type of test: biochemical. As for the experimental part:
as §3, §4

The mark [3] stands for this setting: mutant 100 nM added together with TA.

Sequence of WT-tPA (P00750 36-562): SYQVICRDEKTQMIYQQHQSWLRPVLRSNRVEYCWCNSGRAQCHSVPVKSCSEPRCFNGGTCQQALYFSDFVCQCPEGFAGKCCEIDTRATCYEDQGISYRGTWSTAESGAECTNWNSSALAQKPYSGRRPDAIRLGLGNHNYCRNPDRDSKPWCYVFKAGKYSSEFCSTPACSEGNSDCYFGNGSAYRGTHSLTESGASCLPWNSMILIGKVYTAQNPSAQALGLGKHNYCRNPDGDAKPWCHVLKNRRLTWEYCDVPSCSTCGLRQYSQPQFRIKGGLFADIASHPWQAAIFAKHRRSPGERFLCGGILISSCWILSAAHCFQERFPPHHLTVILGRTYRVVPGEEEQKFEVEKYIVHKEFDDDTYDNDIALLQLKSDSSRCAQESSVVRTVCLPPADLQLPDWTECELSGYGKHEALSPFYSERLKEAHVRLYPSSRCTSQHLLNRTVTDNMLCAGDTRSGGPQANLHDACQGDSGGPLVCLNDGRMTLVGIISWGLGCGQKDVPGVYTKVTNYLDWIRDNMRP

B1: tPA-S^481A-DS: tPA double mutant, Ser481 to Ala and KHRR299-302 to AAAA (PAI-1 docking site); SEQ ID NO. 2 or 13 (protein, listed as Homo sapiens)
chain: GARSYQVICRDEKTQMIYQQHQSWLRPVLRSNRVEYCWCNSGRAQCHSVPVKSCSEPRCFNGGTCQQALYFSDFVCQCPEGFAGKCCEIDTRATCYEDQGISYRGTWSTAESGAECTNWNSSALAQKPYSGRRPDAIRLGLGNHNYCRNPDRDSKPWCYVFKAGKYSSEFCSTPACSEGNSDCYFGNGSAYRGTHSLTESGASCLPWNSMILIGKVYTAQNPSAQALGLGKHNYCRNPDGDAKPWCHVLKNRRLTWEYCDVPSCSTCGLRQYSQPQFRIKGGLFADIASHPWQAAIFAAAAASPGERFLCGGILISSCWILSAAHCFQERFPPHHLTVILGRTYRVVPGEEEQKFEVEKYIVHKEFDDDTYDNDIALLQLKSDSSRCAQESSVVRTVCLPPADLQLPDWTECELSGYGKHEALSPFYSERLKEAHVRLYPSSRCTSQHLLNRTVTDNMLCAGDTRSGGPQANLHDACQGDAGGPLVCLNDGRMTLVGIISWGLGCGQKDVPGVYTKVTNYLDWIRDNMRP
notes: tPA double mutant, Ser481 to Ala and KHRR299-302 to AAAA (PAI-1 docking site); 2 or 13
In the case of B1, the “plasminogen activation by tPA in the absence of fibrin, in the presence of TA” value in the test on tPA (setting [3]) is “inhibited the plasminogen activation induced by tPA”. Besides, in the test with tPA (plasminogen 500 nM, WT-tPA 50 nM, mutants 100 nM or TA 200 nM alone), the “plasminogen activation by tPA in the absence of fibrin (change in OD per minute)” value is “Neither tPA-S^481A nor tPA-S^481A-DS inhibited”. Besides, in the test with uPA [1], the “lysis of human plasma derived clots by uPA” value is given as “Identical anti-fibrinolytic activity; also recorded: inhibited”. In the test with uPA [2] (setting [3]), the “plasminogen activation by uPA in the absence of fibrin, in the presence of TA” value was “inhibited the activation of plasminogen by uPA”. For the same molecule, the “plasminogen activation by uPA in the absence of fibrin (change in OD per minute)” value with uPA [2] (plasminogen 500 nM, uPA 20 nM, mutants 100 nM or TA 200 nM alone) was “Neither tPA-S^481A nor tPA-S^481A-DS inhibited”. In addition, the “intracerebral hemorrhage increased by injected WT-tPA post CHI” value in the test with WT mice subjected to CHI (WT mice given WT-tPA 5 mg/kg immediately after CHI plus equimolar mutant) was “could be inhibited”. For the same molecule, the “plasma levels of d-Dimers post CHI” value with WT mice subjected to CHI (WT mice, 1 mg/kg IV, measured 2 hours after CHI, FIG. 4A, 1 mg/kg) was “significantly attenuated the increase in d-Dimers; also recorded: had the same effect on d-Dimers and post TBI thrombocytopenia”. For the same molecule, in the test with WT mice subjected to CHI (WT mice, 1 mg/kg IV, measured 2 hours after CHI, FIG. 4B, 1 mg/kg), the “platelet counts / thrombocytopenia post CHI” value was “prevented the development of thrombocytopenia; also recorded: had the same effect on d-Dimers and post TBI thrombocytopenia”. The “CSF fibrinolytic activity post CHI” value in the test on WT mice subjected to CHI (WT mice, IV after CHI, CSF obtained 2 hours after CHI, tested on plasma derived clots) is reported as “inhibited CSF fibrinolytic activity”. The “intracerebral hemorrhage (MRI, extravasation of Hgb) post CHI” value in the test with WT mice subjected to CHI (WT mice, IV immediately after or 2 hrs after CHI, Hgb at 2 or 8 hrs, MRI at 24 hrs) is reported as “significantly attenuated the expansion of intracerebral hemorrhage; also recorded: decreased ICH to the same extent as tPA-S^481A”. Further, the “inhibition of intracerebral hemorrhage compared with combination of TA and aprotinin” value in the test with WT mice subjected to CHI (combination in optimal concentrations, FIG. 3B) is “comparable to the inhibition induced by a combination of TA and aprotinin”. Also, the “neuroprotection (neurological severity score, NSS)” value was “the difference in neuroprotection provided by the two tPA variants vanished” in the test with WT mice subjected to CHI (FIG. 5) and “lower neurological severity scores (NSS)” with WT mice subjected to CHI (FIG. 5, listed as tPA^Ser481Ala-DS). The “neuroprotection (neurological severity score, NSS, 24 hours after CHI)” value in the test on WT mice subjected to CHI (given IV immediately after CHI, 1 mg/kg, FIG. 5) is reported as “provided less neuroprotection than tPA-S^481A”. Moreover, the “potency as inhibitor of intracerebral hemorrhage compared with TA or aprotinin” value in the test on WT mice subjected to CHI (optimal concentrations of TA or aprotinin, FIG. 3B) is recorded as “more potent inhibitors of intracerebral hemorrhage than optimal concentrations of TA or aprotinin”. In the test with reteplase, the “clot lysis induced by reteplase” value was “inhibit the clot lysis induced by reteplase”. For the same molecule, in the test with WT-tPA (TA tested at its maximal inhibitory concentration, FIG. 2B), the “potency as inhibitor of fibrinolysis compared with TA” value is listed as “more potent inhibitors of fibrinolysis than TA”. Also, in the test with WT-tPA (WT-tPA 20 nM, mutant 50 nM, FIG. 2A, 2B), the “lysis of human plasma derived clots by WT-tPA” value is “Identical anti-fibrinolytic activity; also recorded: inhibited”.
